Laboratory results taken from the Human Domainome abundance scans (Beltran et al. 2025).

B1: Chromodomain-helicase-DNA-binding protein 5, residues 338 to 390; numbered along this chain, Q8TDI0 (parent)
chain: YETDHQDYCEVCQQGGEIILCDTCPRAYHLVCLDPELEKAPEGKWSCPHCEKE

Variants of: B1
Assay: abundance fitness (aPCA) (normalised: wild type 0, dead -1); higher = more abundant; growth selection in yeast, the domain comes from the species named
Settings: Homo sapiens

Abundance fitness, by site and new letter:
E17: V -0.358, I 0.227, Q -0.377, M 0.1, F -0.213, R -0.189, D -0.182, T -0.109, S -0.354, C -0.105, P -0.445, K 0.105, N 0.2, L -0.096, H -0.435, W 0.188, G -0.07
R26: K 0.094, V -0.207, G -0.029, A 0.009, T -0.436, P -0.87, Q 0.205, W -0.18, L 0.154, H 0.493, D -0.296, Y -0.144, S 0.002, I -0.059, M 0.144, F -0.211, C 0.012
D34: L -0.201, N -0.354, P -0.15, W -0.516, I -0.313, C -0.161, V -0.14, K -0.347, A 0.052, G -0.167, F -0.058, S 0.093, T -0.195, E 0.266, Y -0.269, R -0.125, H 0.039, Q -0.098, M -0.403
A27: F -0.027, M -0.29, L -0.204, P -0.231, V -0.211, Y -0.159, K -0.242, D -0.258, R -0.086, E -0.55, H -0.097, N 0.048, C -0.093, W -0.186, Q 0.171, S -0.133, T 0.074, I -0.021
C32: G -0.969, H -0.765, K -1.03, M -0.926, Y -0.777, A -1, L -0.993, E -0.52, Q -0.982, I -0.786, N -0.579, R -0.94, P -0.885, D -0.806, T -1.02, V -0.618
L30: E 0.059, W -0.036, Y 0.193, A 0.094, H -0.194, Q 0.107, C -0.096, V -0.135, R 0.085, K 0.04, D -0.206, N -0.047, P -0.414, G 0.092, M 0.095, F -0.063, I -0.703, S -0.06, T -0.222
V31: P 0.106, K -0.314, D -0.157, E 0.257, T -0.023, R -0.27, I -0.205, G 0.069, W -0.566, Y -0.368, F 0.047, M -0.383, S -0.145, A -0.046, C -0.325, H 0.018, N -0.193, L -0.104, Q -0.315
Y28: V 0.054, I -0.293, L -0.148, E -0.668, S -0.075, H -0.158, F -0.315, N -0.193, W -0.098, P -0.85, R 0.023, G -0.125, M -0.148, C 0.001, D -0.713, Q -0.709, A -0.085
C21: L -0.872, G -0.853, T -0.995, V -0.519, N -0.889, M -0.701, I -0.912, D -0.921, E -1.08, Q -0.973, R -0.929, Y -0.739, F -1.22, P -0.907, W -1.08, S -0.811, A -0.563, K -0.805
D22: L -0.059, S -0.244, H -0.078, I -0.177, T 0.187, R -0.067, A 0.149, C -0.432, K -0.171, F -0.597, M -0.185, E -0.101, N -0.015, W -0.373, P 0.111, Y 0.088
C24: Q -0.879, I -0.88, E -0.979, S -0.753, R -0.804, N -1.15, Y -0.784, L -0.682, P -0.437, V -0.979, F -0.567, D -1.16, K -0.917, M -0.772, W -0.736, T -0.586
H29: G -0.744, F -1.07, W -0.822, A -0.5, M -0.547, T -0.986, D -0.451, Y -0.719, E -0.736, L -1.14, C 0.053, Q -0.887, N -0.766, P -0.672, V -1.1, K -0.793, S -0.882
I18: W -0.02, R 0.021, M 0.007, V -0.286, C -0.508, E -0.454, P -0.228, Q 0.28, G 0.047, A 0.177, S 0.065, L -0.098, F -0.058, H 0.03, T 0.021, D -0.172, K 0.137, N 0.039, Y 0.145
G15: W -0.136, V -0.143, Y 0.083
P35: C -0.313, F -0.915, E 0.001, G 0.181
L33: R -0.281, Y 0.064, G -0.389, N -0.311, V -0.034, E -0.414, W 0.032, H 0.046, A -0.085, P -0.223, S 0.176, I -0.235, F -0.013, C -0.272, M 0.185, T 0.163
G16: E 0.027, S 0.114, T 0.265, N 0.259, M 0.255, Q 0.183, H 0.435, V -0.17, R 0.098, L 0.239, A -0.037, C -0.336, I -0.195, Y 0.193
P25: N -0.084, L -0.157, E -0.287, Y -0.08, R -0.107, S -0.1, W -0.081, C -0.278, G -0.001, H -0.833, V -0.124, M -0.167, K 0.109, Q -0.093, I 0.064, T 0.057
I19: V -0.085, L 0.121, D -0.023, A 0.109, C -0.137, T 0.303, G -0.177, M 0.256, S -0.104, Q 0.029, F 0.051, K 0.315, R 0.115, P -1.07, Y -0.226, H 0.128, N 0.161, E -0.056
T23: L -0.07, N 0.034, K -0.457, I -0.135, Q -0.15, M 0.114, R -0.12, W -0.443, G -0.305, S -0.01, C -0.177, P -0.922, D -0.09, F 0.166, A -0.545, Y -0.161, H -0.397, E 0.026
L20: D 0.127, F 0.078, Y 0.169, R 0.266, H 0.224, T 0.258, N 0.091, P 0.234, A 0.139, K 0.099, Q 0.414, V 0.051, S 0.233, M 0.371, I -0.095, E -0.119, G 0.297
